Source: US20140234975

Experiments:
Test in all cases: cell_activity
[1] = tested on: T1, scTrex2-SC_CAPNS1 (engineered (human TREX2 fusion)); conditions: 293H endogenous locus
T1 sequence: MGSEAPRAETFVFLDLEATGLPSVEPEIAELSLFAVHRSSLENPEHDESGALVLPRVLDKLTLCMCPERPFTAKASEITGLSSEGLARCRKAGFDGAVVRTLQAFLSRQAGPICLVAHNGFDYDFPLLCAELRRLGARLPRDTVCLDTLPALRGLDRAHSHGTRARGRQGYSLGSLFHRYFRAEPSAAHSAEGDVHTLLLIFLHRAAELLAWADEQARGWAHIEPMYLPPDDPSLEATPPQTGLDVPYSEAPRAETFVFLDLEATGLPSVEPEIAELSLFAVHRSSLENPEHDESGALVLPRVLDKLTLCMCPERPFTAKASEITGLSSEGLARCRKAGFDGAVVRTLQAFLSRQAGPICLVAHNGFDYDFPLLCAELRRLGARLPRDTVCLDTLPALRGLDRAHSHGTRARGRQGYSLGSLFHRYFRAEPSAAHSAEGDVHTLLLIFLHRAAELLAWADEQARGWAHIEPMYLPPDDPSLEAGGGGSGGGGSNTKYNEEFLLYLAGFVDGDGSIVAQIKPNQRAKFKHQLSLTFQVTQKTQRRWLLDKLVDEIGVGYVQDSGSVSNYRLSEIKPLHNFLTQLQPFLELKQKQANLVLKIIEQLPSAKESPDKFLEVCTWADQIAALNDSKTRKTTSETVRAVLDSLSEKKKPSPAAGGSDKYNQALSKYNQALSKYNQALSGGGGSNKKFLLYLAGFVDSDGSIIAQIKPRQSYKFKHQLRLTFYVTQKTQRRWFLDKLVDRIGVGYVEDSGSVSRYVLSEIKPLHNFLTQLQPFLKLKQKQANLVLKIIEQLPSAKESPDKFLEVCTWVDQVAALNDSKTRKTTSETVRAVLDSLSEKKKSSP

[2] = tested on: T2, SC_CAPNS1 single-chain meganuclease (engineered); conditions: 293H endogenous locus; 18.25 with TREX2, 25.4 with scTREX2
T2 sequence: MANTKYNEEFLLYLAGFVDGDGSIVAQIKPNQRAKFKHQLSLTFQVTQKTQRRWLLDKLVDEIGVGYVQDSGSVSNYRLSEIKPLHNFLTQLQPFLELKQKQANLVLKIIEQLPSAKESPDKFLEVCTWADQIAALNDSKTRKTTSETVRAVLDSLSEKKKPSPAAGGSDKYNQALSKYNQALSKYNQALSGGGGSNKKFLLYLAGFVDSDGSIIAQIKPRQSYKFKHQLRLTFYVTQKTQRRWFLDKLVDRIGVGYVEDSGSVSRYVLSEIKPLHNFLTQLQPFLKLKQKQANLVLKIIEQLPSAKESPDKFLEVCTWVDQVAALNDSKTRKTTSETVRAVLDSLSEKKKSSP

[3] = tested on: T3, scTrex2-SC_RAG (engineered (human TREX2 fusion)); conditions: 293H endogenous locus
T3 sequence: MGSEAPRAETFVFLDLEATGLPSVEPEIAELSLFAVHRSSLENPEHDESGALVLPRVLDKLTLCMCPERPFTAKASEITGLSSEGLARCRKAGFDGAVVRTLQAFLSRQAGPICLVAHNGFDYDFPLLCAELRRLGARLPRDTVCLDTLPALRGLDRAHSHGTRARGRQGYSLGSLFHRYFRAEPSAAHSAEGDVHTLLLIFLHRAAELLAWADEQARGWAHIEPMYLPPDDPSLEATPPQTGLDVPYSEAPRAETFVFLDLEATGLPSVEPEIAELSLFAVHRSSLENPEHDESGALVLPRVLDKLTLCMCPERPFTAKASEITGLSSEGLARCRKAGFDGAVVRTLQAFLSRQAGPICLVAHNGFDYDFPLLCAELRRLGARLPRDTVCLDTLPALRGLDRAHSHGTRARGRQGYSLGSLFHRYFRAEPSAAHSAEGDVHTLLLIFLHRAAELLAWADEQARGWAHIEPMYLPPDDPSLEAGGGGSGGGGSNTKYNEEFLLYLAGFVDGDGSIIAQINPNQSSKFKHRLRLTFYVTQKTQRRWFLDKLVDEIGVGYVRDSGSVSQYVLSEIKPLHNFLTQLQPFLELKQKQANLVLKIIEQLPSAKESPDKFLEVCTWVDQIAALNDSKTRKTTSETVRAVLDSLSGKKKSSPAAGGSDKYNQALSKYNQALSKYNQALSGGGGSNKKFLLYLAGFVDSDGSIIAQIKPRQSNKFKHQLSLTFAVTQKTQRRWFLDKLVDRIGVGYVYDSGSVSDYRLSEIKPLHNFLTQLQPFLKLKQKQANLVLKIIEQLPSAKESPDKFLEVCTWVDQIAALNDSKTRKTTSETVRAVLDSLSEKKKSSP

[4] = tested on: T4, SC_RAG single-chain meganuclease (engineered); conditions: 293H endogenous locus; 4.69 with TREX2, 5.41 with scTREX2
T4 sequence: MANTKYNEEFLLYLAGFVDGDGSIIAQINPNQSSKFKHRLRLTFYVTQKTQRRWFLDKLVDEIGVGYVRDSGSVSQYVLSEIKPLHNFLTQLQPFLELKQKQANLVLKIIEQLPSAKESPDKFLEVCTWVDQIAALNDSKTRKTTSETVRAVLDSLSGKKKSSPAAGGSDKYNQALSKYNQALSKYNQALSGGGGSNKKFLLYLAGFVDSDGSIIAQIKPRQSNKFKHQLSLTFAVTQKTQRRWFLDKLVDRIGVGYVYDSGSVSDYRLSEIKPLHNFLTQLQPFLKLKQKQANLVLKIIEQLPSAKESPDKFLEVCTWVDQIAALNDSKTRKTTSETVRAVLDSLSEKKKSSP

CAPNS1 locus meganuclease target
activity (% targeted mutagenesis) [1]: 35.8
activity (% targeted mutagenesis) [2]: 15.2

RAG1 locus target
activity (% targeted mutagenesis) [3]: 8.42
activity (% targeted mutagenesis) [4]: 1.4
